Molecular target: murine GM-CSF receptor (on FDC-P1 cells) (murine) (UniProt Q00941)
Experiment: cell-based or functional assay

Sequence of UniProt Q00941 (Q00941 30-388, chain 1 of 2): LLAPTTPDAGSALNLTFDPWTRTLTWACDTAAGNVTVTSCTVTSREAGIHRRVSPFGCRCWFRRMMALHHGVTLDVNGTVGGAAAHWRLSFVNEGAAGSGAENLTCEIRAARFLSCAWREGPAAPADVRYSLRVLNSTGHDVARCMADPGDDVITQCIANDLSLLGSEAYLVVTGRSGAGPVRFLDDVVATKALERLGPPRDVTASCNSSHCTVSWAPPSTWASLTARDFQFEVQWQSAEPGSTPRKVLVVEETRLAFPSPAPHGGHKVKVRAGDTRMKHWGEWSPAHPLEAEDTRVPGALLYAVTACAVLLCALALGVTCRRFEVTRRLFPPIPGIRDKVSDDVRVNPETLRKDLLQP
Sequence of UniProt Q00941 (P26955 23-896, chain 2 of 2, further chain): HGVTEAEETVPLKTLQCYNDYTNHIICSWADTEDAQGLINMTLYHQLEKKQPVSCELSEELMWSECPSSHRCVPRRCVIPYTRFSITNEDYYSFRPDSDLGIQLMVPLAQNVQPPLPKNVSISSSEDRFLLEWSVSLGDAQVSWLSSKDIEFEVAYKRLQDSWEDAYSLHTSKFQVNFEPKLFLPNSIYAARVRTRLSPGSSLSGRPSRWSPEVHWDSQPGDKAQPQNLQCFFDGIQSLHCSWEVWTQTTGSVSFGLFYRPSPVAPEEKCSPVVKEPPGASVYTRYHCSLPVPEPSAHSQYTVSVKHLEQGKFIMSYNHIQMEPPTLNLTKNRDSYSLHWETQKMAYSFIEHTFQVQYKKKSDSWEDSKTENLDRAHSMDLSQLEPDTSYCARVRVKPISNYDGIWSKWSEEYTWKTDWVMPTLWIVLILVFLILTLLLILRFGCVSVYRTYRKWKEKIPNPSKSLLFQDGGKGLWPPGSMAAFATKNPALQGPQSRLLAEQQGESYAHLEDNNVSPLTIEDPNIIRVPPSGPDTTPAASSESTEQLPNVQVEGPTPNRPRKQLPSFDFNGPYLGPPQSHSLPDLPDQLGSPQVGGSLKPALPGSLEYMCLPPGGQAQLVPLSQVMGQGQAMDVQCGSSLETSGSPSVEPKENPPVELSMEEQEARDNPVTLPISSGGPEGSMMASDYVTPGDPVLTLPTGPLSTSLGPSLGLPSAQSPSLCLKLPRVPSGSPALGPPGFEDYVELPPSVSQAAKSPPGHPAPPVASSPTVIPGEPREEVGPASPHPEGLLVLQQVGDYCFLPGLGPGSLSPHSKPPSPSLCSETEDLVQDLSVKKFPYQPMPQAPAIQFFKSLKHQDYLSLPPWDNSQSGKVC

proliferation of FDC-P1 cells (Biotrak BrdU cell proliferation ELISA), 10 ng GM-CSF equivalent per well: 25%
Substance: GPI-GM-CSF (murine GM-CSF fused to the S. cerevisiae Gas1 GPI modification signal sequence, expressed in yeast clone SC-GM-GPI) (from UniProt P01587 18-141; P22146 474-528) (other; the values are: proliferation increase vs soluble GM-CSF)

Reference: US20040180389A1
